Data published in patent US20230331848A1 (BIOSION, published 2023).
Values belong to the binder of their own block, whether it stands above or below them.

Experiments:
[1] = biological target: T1, recombinant mouse PD-1-his protein (Cat#:50124-M08H, Sino Biological Inc) (mouse, UniProt Q02242 25-167); assay: indirect ELISA on coated mouse PD-1-his
T1 construct: Bought protein used in Biacore and indirect ELISA; not shown: his tag
T1 sequence (looked up): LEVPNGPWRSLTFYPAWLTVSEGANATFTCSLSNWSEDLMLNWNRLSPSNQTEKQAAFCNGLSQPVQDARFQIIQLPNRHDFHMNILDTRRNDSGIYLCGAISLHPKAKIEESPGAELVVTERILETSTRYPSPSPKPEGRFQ
Description: (§1) Briefly, 96-well micro plates were coated with 100 μl 2 μg/ml mouse PD-1-his (Cat#:50124-M08H, Sino Biological Inc) or 2 μg,/ml cynomolgus PD-1-his (Cat#:PD1-05223, Acro biosystems Inc.) in carbonate/bicarbonate buffer (pH 9.6) for 2 hours at 37° C. Plates were washed once with wash buffer (PBST, PBS+0.05% Tween-20) and then blocked with 200 μl blocking buffer (5% w/v non-fatty milk in PBST) for 2 hours at 37° C. […] ELISA plates were washed 4 times and incubated with Peroxidase AffiniPure goat anti-mouse IgG, Fcγ Fragment Specific (1:5000 dilution in PBST buffer, Cat#:115-035-071, Jackson ImmunoResearch Laboratories, Inc., 100 μl/well) or Peroxidase AffiniPure F(ab′)₂ Fragment Goat Anti-Human IgG, Fcγ fragment specific (Cat#:109-036-098, Jackson ImmunoResearch, for the controls) for 40 minutes at 37° C. After a final wash, plates were incubated with 100 μl/well TMB (Cat#:TMB-S-002, innoreagents) at room temperature. The reaction was stopped 3-10 minutes later with 50 μl/well 1M H₂SO₄, and the absorbance was read on a microplate reader using dual wavelength mode with 450 nm for TMB and 630 nm as the reference wavelength. Then the OD (450-630) values were plotted against antibody concentrations. Data was analyzed using GraphPad Prism software and EC₅₀ values were reported.

[2] = biological target: T2, cynomolgus PD-1-his protein (Cat#:PD1-05223, Acro biosystems Inc.) (cynomolgus, UniProt B0LAJ3 25-170); assay: indirect ELISA on coated cynomolgus PD-1-his; unit from the axis 'Con of mAb, nM.'
T2 construct: Bought protein used in Biacore and indirect ELISA; also called monkey PD-1; Cyno PD-1
Description: as §1

[3] = biological target: T3, in house made human PD-1-Fc protein (human, biotin-labeled (sites not given)); assay: competitive ELISA: antibody pre-mixed with biotin-labeled human PD-1-Fc, added to coated human PD-L1-Fc (blocked ligand); unit from the axis 'Con of mAb, nM.'
T3 construct: also called biotin-labeled human PD-1-Fc
Description: The activities of the anti-PD1 antibodies of the disclosure to block PD-L1-PD1 binding were measured in a competitive ELISA.
Briefly, 100 μl human PD-L1-Fc protein (prepared in-house with SEQ ID NO: 28) at 2 μg/mL in carbonate/bicarbonate buffer (pH 9.6) was coated on 96-well micro plates overnight at 4° C., Plates were washed with wash buffer (PBS+0.05% w/v Tween-20, PBST), and blocked with 5% w/v non-fatty milk in PBST for 2 hours at 37° C. […] After incubation at 37° C. for 40 minutes, plates were washed using wash buffer. […] Plates were washed again using wash buffer. Finally, TMB was added and the reaction was stopped using 1M H₂SO₄. The absorbance was read on a microplate reader using dual wavelength mode with 450 nm for TMB and 630 nm as the reference wavelength, then the OD (450-630) values were plotted against antibody concentrations. Data was analyzed using Graphpad Prism software and IC₅₀ values were reported.

[4] = biological target: human PD-1 expressed on GS-J2/PD-1 cells (Genscript) (human, UniProt Q15116 25-288); assay: cell-based or functional assay
[5] = biological target: T2, cynomolgus PD-1-his protein …; assay: indirect ELISA on coated cynomolgus PD-1-his
[6] = biological target: T4, human PD-1-his protein prepared in-house (human, UniProt Q15116 25-167, biotin-labeled (sites not given)); assay: capture ELISA, antibody captured, biotin human PD-1-his detected
T4 construct: also called biotin labeled human PD-1-his
Description: Briefly, 96-well micro plates were coated with 100 μl 2 μg/ml AffiniPure Goat Anti-Mouse IgG F(ab′)₂ fragment specific (Cat#:115-005-072, Jackson lmmunoResearch) or Goat-anti-human IgG (Cat#:109-005-097, Jackson ImmunoResearch, for the positive control and negative control) in PBS overnight at 4° C. Plates were washed once with wash buffer (PBST, PBS+0.05% Tween-20) and then blocked with 200 μl/well blocking buffer (5% w/v non-fatty milk in PBST) for 2 hours at 37° C. […] After a final wash, plates were incubated with 100 μl/well TMB (Cat#:TMB-S-002, Innoreagents) at room temperature.
For the capture ELISA, 96-well plates were coated with 100 μl 2 μg/ml AffiniPure Goat Anti-Human IgG, Fcγ fragment specific (Cat#:109-005-098, Jackson Immunoresearch) instead of AffiniPure goat-anti-mouse IgG F(ab′)₂ fragment specific.

[7] = biological target: T3, in house made human PD-1-Fc protein; assay: blocking FACS: biotin human PD-1-Fc + antibody on GS-C2/PD-L1 cells (competitor: cell-surface human PD-L1)

binding result [1]: no binding (tested: 66.7 nM) | EC50 [2]: 0.142 nM | IC50 [3]: 0.434 nM
B1: mouse anti-PD-1 monoclonal antibody E1G5D1H1 (antibody, V domains shown)
VH: EVQLVESGGGLVKPGGSLKLSCAASGFTFSDFYMYWVRQTPEKRLEWVATISNSGTQTYYLDSVKGRFTISRDNAKNNLYLQMSSLKSEDTAMYYCARDYYRYDSWYFDVWGAGTTVTVSS
VL: DIVLTQSPASLAVSQGQRATISCRASESVDFYGTSLMQWFQLKPGQPPKLLIYAASNVESGVPARFSGSGSGTNFSLNIHPVEEDDIAMYFCQQSRKVPWTFGGGTNLEIK
notes: Hybridoma-derived mouse mAb; also called EIG5D1H1; E1G5DIH1

Cell-based functional assay (EC50, nM) [4]: 6.62 nM | EC50 [5]: 0.07 nM | EC50 [6]: 0.14 nM | IC50 [7]: 0.42 nM
B2: mouse anti-PD-1 monoclonal antibody E1A9C8A7 (antibody, V domains shown)
VH: QVQLQQSGAEVVRPGVSVRISCKGSGYTFSDYVMHWMKQSHGESLEWIGVISTYHIPAVYNQKFKGKATMTVDKSSSTVYLELARLTSEDSAIYYCAREVYGDSYYFDVWGAGTTVTVSS
VL: DVLMTQIPLSLPVSLGDQVSISCRSSQSIVHSNGNTYLEWYLQKPGQSPKLLIYKVSNRFSGVPDRFSGSGSGTDFTLKISRVEAEDLGVYYCFQGSHVPYTFGGGTKLEIK
notes: Hybridoma-derived mouse mAb purified on Protein A; also called Mouse E1A9C8A7
